Test results taken from patent publication US20210347913A1 (published 2021).
Changes are numbered by the printed parent chain.

T1: PTK7 on PTK7 positive cell line SaOS-2 (osteosarcoma) (UniProt Q13308 31-1070)
T1 chain: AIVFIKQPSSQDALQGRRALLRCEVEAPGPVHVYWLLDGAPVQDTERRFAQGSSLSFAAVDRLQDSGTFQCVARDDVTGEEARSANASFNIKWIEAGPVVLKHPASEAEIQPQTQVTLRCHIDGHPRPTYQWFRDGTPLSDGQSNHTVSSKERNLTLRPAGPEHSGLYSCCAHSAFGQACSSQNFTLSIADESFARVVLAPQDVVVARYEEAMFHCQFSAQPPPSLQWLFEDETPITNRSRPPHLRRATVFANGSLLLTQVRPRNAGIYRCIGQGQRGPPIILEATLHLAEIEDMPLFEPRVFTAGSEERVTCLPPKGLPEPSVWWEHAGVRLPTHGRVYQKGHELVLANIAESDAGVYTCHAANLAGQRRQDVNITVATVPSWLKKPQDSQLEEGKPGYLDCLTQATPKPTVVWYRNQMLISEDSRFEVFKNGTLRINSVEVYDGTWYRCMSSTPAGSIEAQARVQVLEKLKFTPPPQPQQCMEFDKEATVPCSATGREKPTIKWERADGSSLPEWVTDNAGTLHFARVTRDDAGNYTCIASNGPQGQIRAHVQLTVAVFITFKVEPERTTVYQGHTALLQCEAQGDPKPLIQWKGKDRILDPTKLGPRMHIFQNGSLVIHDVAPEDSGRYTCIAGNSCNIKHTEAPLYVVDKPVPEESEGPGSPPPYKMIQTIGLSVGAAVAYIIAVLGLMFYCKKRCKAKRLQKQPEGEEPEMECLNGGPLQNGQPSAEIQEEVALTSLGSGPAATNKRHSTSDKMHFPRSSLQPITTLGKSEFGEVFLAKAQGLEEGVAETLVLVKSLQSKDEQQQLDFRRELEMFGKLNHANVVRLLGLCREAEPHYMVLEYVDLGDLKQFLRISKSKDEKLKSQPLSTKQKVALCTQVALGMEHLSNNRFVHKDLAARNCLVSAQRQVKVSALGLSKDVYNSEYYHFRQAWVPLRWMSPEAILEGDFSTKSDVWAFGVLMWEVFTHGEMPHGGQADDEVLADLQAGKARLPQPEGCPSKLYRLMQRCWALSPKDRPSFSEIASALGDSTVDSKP

B1: 181 M4 (antibody)
chain: QGCTFPNTTMQRTFCGSSGGSGGSGGSGGGPLGLAGGSSGQVQLVESGGGVVQPGRSLRLSCAASGFTFSSYGMHWVRQAPGKGLEWVAVIWDDGSNKYYVDSVKGRFTISRDNSKNTLYLQMNSLRAEDTAVYYCARDDYYGSGSFNSYYGTDVWGQGTTVTVSSGGGGSGGGGSGGGGSEIVLTQSPATLSLSPGERATLSCRASQSVSIYLAWYQQKPGQAPRLLIYDASNRATGIPARFSGSGSGTDFTLTISSLEPEDFAVYYCQQRSNWPPFTFGPGTKVDIKSAAAFVPVFLPAKPTTTPAPRPPTPAPTIASQPLSLRPEACRPAAGGAVHTRGLDFACDIYIWAPLAGTCGVLLLSLVITLYCNHRNRSKRSRLLHSDYMNMTPRRPGPTRKHYQPYAPPRDFAAYRSRVKFSRSADAPAYQQGQNQLYNELNLGRREEYDVLDKRRGRDPEMGGKPRRKNPQEGLYNELQKDKMAEAYSEIGMKGERRRGKGHDGLYQGLSTATKDTYDALHMQALPPR
B2: 181 M8 (antibody)
chain: QGWCTIPSSMSIRLCGSSGGSGGSGGSGGGPLGLAGGSSGQVQLVESGGGVVQPGRSLRLSCAASGFTFSSYGMHWVRQAPGKGLEWVAVIWDDGSNKYYVDSVKGRFTISRDNSKNTLYLQMNSLRAEDTAVYYCARDDYYGSGSFNSYYGTDVWGQGTTVTVSSGGGGSGGGGSGGGGSEIVLTQSPATLSLSPGERATLSCRASQSVSIYLAWYQQKPGQAPRLLIYDASNRATGIPARFSGSGSGTDFTLTISSLEPEDFAVYYCQQRSNWPPFTFGPGTKVDIKSAAAFVPVFLPAKPTTTPAPRPPTPAPTIASQPLSLRPEACRPAAGGAVHTRGLDFACDIYIWAPLAGTCGVLLLSLVITLYCNHRNRSKRSRLLHSDYMNMTPRRPGPTRKHYQPYAPPRDFAAYRSRVKFSRSADAPAYQQGQNQLYNELNLGRREEYDVLDKRRGRDPEMGGKPRRKNPQEGLYNELQKDKMAEAYSEIGMKGERRRGKGHDGLYQGLSTATKDTYDALHMQALPPR
B3: 181 M3 (antibody)
chain: B1 chain with F5M, N7P, T8S, T9P, M10R, Q11S, R12K, T13V, F14I

Molecular target: T1, PTK7 on PTK7 positive cell line SaOS-2 …
Experiment: FACS binding SaOS-2

Compared with B1, B2 is 6-fold higher in EC50: 16.7 nM for the first, 101 nM for the second.

B3 showed an EC50 of 225 nM.

Molecular target: T1, PTK7 on PTK7 positive cell line SaOS-2 …
Experiment: FACS binding SaOS-2; -MMP14

First: B1
Second: B2
The EC50 of the first is 4.7-fold lower: 20.8 nM for the first, 96.9 nM for the second.

For B3, the EC50 was 406 nM.

Molecular target: T1, PTK7 on PTK7 positive cell line SaOS-2 …
Experiment: FACS binding SaOS-2; +MMP14

Compared with B1, B2 is 2-fold higher in EC50: 0.41 nM for the first, 0.8 nM for the second.

Binder B3 has an EC50 of 0.95 nM.
